{
  "source": "paper PMC6748655",
  "about": "(Cell host & microbe, 2019)",
  "key": {"[1]": {"molecular_target": "HA on intact H3N2 A/Aichi/2/1968 (X31) virions (Influenza A virus H3N2 A/Aichi/2/1968 …, UniProt P03437, strain)", "test": "ELISA"}, "[2]": {"molecular_target": "representative H4 HA (Influenza A virus H4, strain not named …, UniProt M1UPL4, strain)", "test": "ELISA"}},
  "data": [
    {"binder": "FL-1066 IgG (human IgG1) (antibody, V domains shown) VH: DVKLVESGEGLVKPGGSLKLSCAASGFTFSGYDMSWVRQTPEKRLEWVAYISSGGDYIYYADTVKGRFTISRDNARNTLYLQMSSLKSEDTAMYYCTRDSDYYGSRVWFAYWGQGTLVTVSG VL: QAVVTQESALTTSPGETVTLTCRSSTGAVTTSNYANWVQEKPDHLFTGLIGGTNNRAPGVPARFSGSLIGDKAALTITGAQTEDEAIYFCALWFSNHWVFGGGTKLTVL", "values": [
      {"measurement": "binding result", "setting": "[1]", "value": "binds"},
      {"measurement": "binding result", "setting": "[2]", "value": "binds"}
    ]}
  ]
}
